The values below come from patent US20180179292A1, “RKIP AGONISM IN THE TREATMENT AND PREVENTION OF HEART FAILURE” (Leibniz-Institut für analytische Wissenschaften- ISAS-e.V., priority 2015, published 2018).

For assay [1], the system named is neonatal rat cardiomyocytes (NRCM). The experiment in a line: Contractile activity of neonatal rat cardiomyocytes. It is filed as cell-based. Conditions: in the presence of isoprenaline (50 nM), 33° C., beats per minute. The protocol: NRCM were cultured for 24 h and transduced as indicated with a control virus (LacZ) or a virus encoding RKIP-wt and/or treated with rituximab as indicated. The spontaneous contractions were measured at 33° C. for one minute and normalized for each experiment to LacZ under unstimulated conditions. NRCM were then stimulated with isoproterenol (50 nM) and after 2 min contractions were counted again. SEM; *, p<0.0001, n=5
Neonatal rat cardiomyocytes were isolated as described (Lorenz et al. Nature 2003, 426:574-579; Vidal et al., Cardiovasc. Res. 2012, 96:255-264). Cardiomyocytes were transduced by adenoviruses or treated with indicated antibodies. To monitor the contractile activity of cardiomyocytes, live cells were examined on a Zeiss Axiovert 135 microscope.

The test system of assay [2] is neonatal rat cardiac fibroblasts. The experiment in a line: [3H]Thymidine incorporation in neonatal rat fibroblasts. The note with it: adenovirally transduced Flag-RKIP, 0.1% FCS, 96 h. It is filed as cell-based. On the technique in general: Incorporation of labelled thymidine or its analogues reports DNA synthesis.

B1: RKIP: Raf kinase inhibitor protein, overexpressed in cells by adenoviral transduction (protein, UniProt P30086 2-187, looked up)
Phosphatidylethanolamine-bindi …: PVDLSKWSGPLSLQEVDEQPQHPLHVTYAGAAVDELGKVLTPTQVKNRPTSISWDGLDSGKLYTLVLTDPDAPSRKDPKYREWHHFLVVNMKGNDISSGTVLSDYVGSGPPKGTGLHRYVWLVYEQDRPLKCDEPILSNRSGDHRGKFKVASFRKKYELRAPVAGTCYQAEWDDYVPKLYEQLSGK
modifications: Flag tag
Consider B1, for which the NRCM contractility entry in assay [1] is given as “increased NRCM contractility”. Besides, in assay [2], the “proliferation ([3H]thymidine incorporation)” value was “minor but significant anti-proliferative effect”.
